We go through 6 molecules from US20240272170A1.

Positions count from the first letter of the chain named.

For assay [1], the target named is YRELRLLK after cleavage to N-terminal arginine (RELRLLK). Description: single-molecule dynamic sequencing on chip.
Assay [2] shares this target. Briefly: on-chip single-molecule dynamic sequencing with PS610, PS961, PS621 and aminopeptidases; median of the RS mean PD distribution; panel YREL.
The target of assay [3] is T1, HA peptide (Octet assay of PS621 variants).
T1 sequence (peptide): HAKLDEESILKQK
Description: Octet (BLI), 30 C. (In general: Biolayer interferometry detects binding as a change in optical thickness at a sensor tip.)

Assay [4] deals with YA peptide (Octet assay of PS557 variants). Briefly: Octet (BLI), peptide on sensor, response after 200 s association.
The target in assay [5] is IA peptide (Octet assay of PS557 variants). The description is as above.
The target of assay [6] is MA peptide (Octet assay of PS557 variants). The description is as above.
Assay [7] has as its target WA peptide (Octet assay of PS557 variants). Described as above.
For assay [8], the target named is FA peptide (Octet assay of PS557 variants). The description is as above.
Assay [9] deals with IA peptide (Octet assay of PS557 variants). Description: Octet (BLI), peptide on sensor, response after 200 s association; second PS829 row.
Assay [10] has as its target MA peptide (Octet assay of PS557 variants). Described as above.
Assay [11] deals with FA peptide (Octet assay of PS557 variants). Described as above.

B1: PS621 (protein)
chain: MHSKFSHAGRICGAKFKVGEPIYRCKECSFDDTCVLCVNCFNPKDHTGHHVYTTICTEFNNGICDCGDKEAWNHTLFCKAEEG
As to B1, in assay [1], the median interpulse duration (IPD) worked out at 10.1 s. The same molecule displayed a median RS mean PD in assay [2] of 0.19 s.

B2: PS1103 (designed binder)
chain: B1 chain with D32Y
Consider B2, for which, in [3], the Octet response came out at 0.1.

B3: PS1112 (designed binder)
chain: B1 chain with E70T
For the molecule B3, in [3], the Octet response was found to be 0.1.

B4: PS1116 (designed binder)
chain: B1 chain with G48Y
In assay [3], B4 registered an Octet response of 0.1.

B5: PS1111 (designed binder)
chain: B1 chain with E70S
Take B5: the Octet response in assay [3] was found to be 0.1.

B6: PS829 (designed binder)
chain: MPTAASATESAIEDTPAPARPEVDGRTKPKRQPRYHVVLWDDDDHTYQYVVVMLQSLFGHPRERGYRLAKEMDTLGRVIVLTTTREHAELKRDQIHAFGYDRLLARSKGSMKASIEAEE
In the case of B6, the Octet response turned out to be 0.749 nm in [4]; 7.51 nm in [5]; 4.7 nm in assay [6]; 0.625 nm in assay [7]; 0.797 nm in [8]; 8.85 nm in [9]. Besides, the Octet response came to 7.86 nm in assay [10] and 1.18 nm in assay [11].
